Changes are numbered by the printed parent chain.
What was measured:
Assay in all cases: cell-based or functional assay
[1] = target: HIV Env of isolate CNE31 (HIV)
[2] = target: Env of HIV isolate 269-12 (clade AG) (HIV)
[3] = target: Env of HIV isolate 6095.v1.c10 (clade ACD) (HIV)
[4] = target: Env of HIV isolate 3873.v1.c24 (clade C) (HIV)
[5] = target: Env of HIV isolate CNE56 (clade AE) (HIV)
[6] = target: HIV Env of isolate 6785.v5.c14 (HIV)
[7] = target: Env of HIV isolate Ce1176.A3 (clade C) (HIV)
[8] = target: HIV Env of isolate 286.36 (HIV)
[9] = target: Env of HIV isolate AC10.29 (clade B) (HIV)
[10] = target: Env of HIV isolate T250-4 (clade AG) (HIV)
[11] = target: Env of HIV isolate NKU3006.ec1 (clade D) (HIV)
[12] = target: HIV Env of isolate 288.38 (HIV)
[13] = target: HIV Env of isolate 191821.E6.1 (HIV)
[14] = target: HIV Env of isolate ZM135.10a (HIV)
[15] = target: HIV Env of isolate 16845-2.22 (HIV)
[16] = target: Envelope protein of SVA.MLV (clade NA)
[17] = target: Env of HIV isolate CNE12 (clade B) (HIV)
[18] = target: Env of HIV isolate CNE3 (clade AE) (HIV)
[19] = target: Env of HIV isolate 288.38 (clade C) (HIV)
[20] = target: Env of HIV isolate P1981.C5.3 (clade G) (HIV)
[21] = target: Env of HIV isolate 928-28 (clade AG) (HIV)
[22] = target: HIV Env of isolate 25711-2.4 (HIV)
[23] = target: Env of HIV isolate CH038.12 (clade BC) (HIV)
[24] = target: Env of HIV isolate 6785.v5.c14 (clade C) (HIV)
[25] = target: Env of HIV isolate 286.36 (clade C) (HIV)
[26] = target: Env of HIV isolate TH966.8 (clade AE) (HIV)
[27] = target: Env of HIV isolate T253-11 (clade AG) (HIV)
[28] = target: Env of HIV isolate 3365.v2.c20 (clade A) (HIV)
[29] = target: HIV Env of isolate BR025.9 (HIV)
[30] = target: Env of HIV isolate TH976.17 (clade AE) (HIV)
[31] = target: Env of HIV isolate C2101.c1 (clade AE) (HIV)
[32] = target: Env of HIV isolate T266-60 (clade AG) (HIV)
[33] = target: Env of HIV isolate DU123.06 (clade C) (HIV)
[34] = target: Env of HIV isolate BI369.9A (clade A) (HIV)
[35] = target: Env of HIV isolate X1193.c1 (clade G) (HIV)
[36] = target: HIV Env of isolate DU123.06 (HIV)
[37] = target: Env of HIV isolate DU151.02 (clade C) (HIV)
[38] = target: Env of HIV isolate T255-34 (clade AG) (HIV)
[39] = target: Env of HIV isolate 25711-2.4 (clade C) (HIV)
[40] = target: HIV Env of isolate ZM53.12 (HIV)
[41] = target: Env of HIV isolate 16845-2.22 (clade C) (HIV)
[42] = target: Env of HIV isolate BB201.B42 (clade A) (HIV)
[43] = target: Env of HIV isolate CNE10 (clade B) (HIV)
[44] = target: Env of HIV isolate 3301.v1.c24 (clade AC) (HIV)
[45] = target: HIV Env of isolate P1981.C5.3 (HIV)
[46] = target: HIV Env of isolate CNE19 (HIV)
[47] = target: Env of HIV isolate CM244.ec1 (clade AE) (HIV)
[48] = target: HIV Env of isolate ZM55.28a (HIV)
[49] = target: HIV Env of isolate 16055-2.3 (HIV)
[50] = target: HIV Env of isolate DU151.02 (HIV)

B1: ePGT121.18.17 (ePGT121.18.H17 VH and ePGT121.17.L1 VL) (antibody, V domains shown)
VH: QMQLQESGPGLVKPGETLSLTCSVSGASISSSYWSWLRETPGKGLEWIGYTHHSGDTNYAPSLKSRVTIGLDPSKNQVSLSLTSVTAADTAVYYCARTLHGRRIYGVVAFNEYYTYFYWPTWGKGTQVTVSS
VL: SDISVAPGETVRITCGGESIGSRAVQWYQHRPGQAPRLIIYNNQDRPPGIPERFSGSPDIDFGTTATLTISNVEAGDEATYYCHIWDSRRPTNWELGPGTTLTVL
Binder B1 has an IC80, pseudovirus neutralization [1] of 250 ng/mL, an IC50, pseudovirus neutralization [2] of 10 ng/mL and an IC50, pseudovirus neutralization [3] of 45 ng/mL. For the same binder, the IC50, pseudovirus neutralization [4] was 11 ng/mL, the IC50, pseudovirus neutralization [5] was over 50000 ng/mL and the IC80, pseudovirus neutralization [6] was 15 ng/mL. The IC50, pseudovirus neutralization [7] was 8 ng/mL, the IC80, pseudovirus neutralization [8] was 6 ng/mL and the IC50, pseudovirus neutralization [9] was 4 ng/mL. The IC50, pseudovirus neutralization [10] was 2 ng/mL, the IC50, pseudovirus neutralization [11] was over 50000 ng/mL and the IC80, pseudovirus neutralization [12] was 3 ng/mL. It also gave an IC80, pseudovirus neutralization [13] of 727 ng/mL, an IC80, pseudovirus neutralization [14] of 780 ng/mL and an IC80, pseudovirus neutralization [15] of 629 ng/mL. The IC50, pseudovirus neutralization [16] was over 50000 ng/mL, the IC50, pseudovirus neutralization [17] was 4 ng/mL and the IC50, pseudovirus neutralization [18] was over 50000 ng/mL. For the same binder, the IC50, pseudovirus neutralization [19] was 2 ng/mL, the IC50, pseudovirus neutralization [20] was 2 ng/mL and the IC50, pseudovirus neutralization [21] was 462 ng/mL. It also gave an IC80, pseudovirus neutralization [22] of 17 ng/mL, an IC50, pseudovirus neutralization [23] of 2 ng/mL and an IC50, pseudovirus neutralization [24] of 5 ng/mL. For the same binder, the IC50, pseudovirus neutralization [25] was 3 ng/mL, the IC50, pseudovirus neutralization [26] was over 50000 ng/mL and the IC50, pseudovirus neutralization [27] was 25 ng/mL. It also gave an IC50, pseudovirus neutralization [28] of 7 ng/mL, an IC80, pseudovirus neutralization [29] of 8 ng/mL and an IC50, pseudovirus neutralization [30] of over 50000 ng/mL. It also gave an IC50, pseudovirus neutralization [31] of over 50000 ng/mL, an IC50, pseudovirus neutralization [32] of 14 ng/mL and an IC50, pseudovirus neutralization [33] of 4 ng/mL. For the same binder, the IC50, pseudovirus neutralization [34] was 4 ng/mL, the IC50, pseudovirus neutralization [35] was 5 ng/mL and the IC80, pseudovirus neutralization [36] was 13 ng/mL. The IC50, pseudovirus neutralization [37] was 3 ng/mL, the IC50, pseudovirus neutralization [38] was 32 ng/mL and the IC50, pseudovirus neutralization [39] was 6 ng/mL. The IC80, pseudovirus neutralization [40] was 79 ng/mL, the IC50, pseudovirus neutralization [41] was 232 ng/mL and the IC50, pseudovirus neutralization [42] was 3 ng/mL. It also gave an IC50, pseudovirus neutralization [43] of 4 ng/mL, an IC50, pseudovirus neutralization [44] of 9 ng/mL and an IC80, pseudovirus neutralization [45] of 5 ng/mL. The IC80, pseudovirus neutralization [46] was 14 ng/mL, the IC50, pseudovirus neutralization [47] was 7230 ng/mL and the IC80, pseudovirus neutralization [48] was 29 ng/mL. For the same binder, the IC80, pseudovirus neutralization [49] was 207 ng/mL and the IC80, pseudovirus neutralization [50] was 5 ng/mL.

B2: ePGT121.15 (ePGT121.15.H6 VH and ePGT121.15.L1 VL) (antibody, V domains shown)
VH: B1 VH with T68H, I69L, D72H, Y113F, Y114F, P120E, T121V
VL: B1 VL with T14S, P32A, R37K, S71T, E95V, L96F, P98G
Binder B2 has an IC80, pseudovirus neutralization [1] of 147 ng/mL, an IC50, pseudovirus neutralization [2] of 11 ng/mL and an IC50, pseudovirus neutralization [3] of 19 ng/mL. The IC50, pseudovirus neutralization [4] was 4 ng/mL, the IC50, pseudovirus neutralization [5] was over 50000 ng/mL and the IC80, pseudovirus neutralization [6] was 10 ng/mL. The IC50, pseudovirus neutralization [7] was 3 ng/mL, the IC80, pseudovirus neutralization [8] was 6 ng/mL and the IC50, pseudovirus neutralization [9] was 2 ng/mL. It also gave an IC50, pseudovirus neutralization [10] of 2 ng/mL, an IC50, pseudovirus neutralization [11] of over 50000 ng/mL and an IC80, pseudovirus neutralization [12] of 5 ng/mL. It also gave an IC80, pseudovirus neutralization [13] of 3000 ng/mL, an IC80, pseudovirus neutralization [14] of 508 ng/mL and an IC80, pseudovirus neutralization [15] of 264 ng/mL. It also gave an IC50, pseudovirus neutralization [16] of over 50000 ng/mL, an IC50, pseudovirus neutralization [17] of 3 ng/mL and an IC50, pseudovirus neutralization [18] of over 50000 ng/mL. It also gave an IC50, pseudovirus neutralization [19] of 1 ng/mL, an IC50, pseudovirus neutralization [20] of 2 ng/mL and an IC50, pseudovirus neutralization [21] of 161 ng/mL. The IC80, pseudovirus neutralization [22] was 8 ng/mL, the IC50, pseudovirus neutralization [23] was 1 ng/mL and the IC50, pseudovirus neutralization [24] was 4 ng/mL. For the same binder, the IC50, pseudovirus neutralization [25] was 2 ng/mL, the IC50, pseudovirus neutralization [26] was over 50000 ng/mL and the IC50, pseudovirus neutralization [27] was 9 ng/mL. For the same binder, the IC50, pseudovirus neutralization [28] was 6 ng/mL, the IC80, pseudovirus neutralization [29] was 6 ng/mL and the IC50, pseudovirus neutralization [30] was over 50000 ng/mL. The IC50, pseudovirus neutralization [31] was over 50000 ng/mL, the IC50, pseudovirus neutralization [32] was 6 ng/mL and the IC50, pseudovirus neutralization [33] was 3 ng/mL. It also gave an IC50, pseudovirus neutralization [34] of 2 ng/mL, an IC50, pseudovirus neutralization [35] of 3 ng/mL and an IC80, pseudovirus neutralization [36] of 8 ng/mL. For the same binder, the IC50, pseudovirus neutralization [37] was 2 ng/mL, the IC50, pseudovirus neutralization [38] was 45 ng/mL and the IC50, pseudovirus neutralization [39] was 4 ng/mL. For the same binder, the IC80, pseudovirus neutralization [40] was 62 ng/mL, the IC50, pseudovirus neutralization [41] was 77 ng/mL and the IC50, pseudovirus neutralization [42] was 3 ng/mL. For the same binder, the IC50, pseudovirus neutralization [43] was 4 ng/mL, the IC50, pseudovirus neutralization [44] was 6 ng/mL and the IC80, pseudovirus neutralization [45] was 5 ng/mL. It also gave an IC80, pseudovirus neutralization [46] of 30 ng/mL, an IC50, pseudovirus neutralization [47] of 7020 ng/mL and an IC80, pseudovirus neutralization [48] of 29 ng/mL. The IC80, pseudovirus neutralization [49] was 211 ng/mL and the IC80, pseudovirus neutralization [50] was 4 ng/mL.
